Test results: paper doi:10.1101/2023.02.11.528150 (bioRxiv, 2023)
Values joined by “and” are separate entries in the source; they are usually repeats but may differ in a detail not shown here. Equal entries are not always repeated. Where two headings read alike, the source gives them in different places.

B1: recombinant form of human platelet factor 4 (PF4), tetramer (natural protein)
chain: EAEEDGDLQCLCVKTTSQVRPRHITSLEVIKAGPHCPTAQLIATLKNGRKICLDLQAPLYKKIIKKLLES
B2: KKO monoclonal anti-PF4/heparin antibody (antibody, V domains shown)
VH: VQLQQSGAELVKPGASVKLSCKASGYTFTNYFIYWVKQRPGQGLEWIGEINPRNGDTDFNEKFESRATLTVDKSSSTAYMQLSSLTSEDSAIYYCTRSPYGNNYGFTYWGQGTLVTVSA
VL: DIQMIQSQKFMSTSVGDRVTVTCKASQNVGTNVAWYQQKPGQSPNALIYSASYRYSGVPDRFTGSGSGTDFTLTITNVQSEDLADYFCQQYNSYPLTFGTGTKLDLK

Columns and labels:
Experiment in all cases: native MS
native MS = biological target: the molecule itself
[1] = biological target: T1, recombinant form of human platelet factor 4 (PF4), tetramer (human, UniProt P02776)
[2] = biological target: T1, recombinant form of human platelet …; remark: listed apart in the source

Binder	stoichiometry N (native MS) [chains per oligomer]	stoichiometry N [1]	stoichiometry N [2]
B1	4		
B2		1 PF4 tetramer (with dp20) per KKO and 2 PF4 tetramers (with dp20) per KKO	1 KKO per complex of two PF4 tetramers on one heparin chain and 2 KKO per complex of three PF4 tetramers on one heparin chain
